According to PMC2172667 (The Journal of Cell Biology, 2003):

Molecular target: the molecule itself
Experiment: AUC + SEC

B1: his-EPLIN-α (natural protein)
chain: MENCLGESRHEVEKSEISENTDASGKIEKYNVPLNRLKMMFEKGEPTQTKILRAQSRSASGRKISENSYSLDDLEIGPGQLSSSTFDSEKNESRRNLELPRLSETSIKDRMAKYQAAVSKQSSSTNYTNELKASGGEIKIHKMEQKENVPPGPEVCITHQEGEKISANENSLAVRSTPAEDDSRDSQVKSEVQQPVHPKPLSPDSRASSLSESSPPKAMKKFQAPARETCVECQKTVYPMERLLANQQVFHISCFRCSYCNNKLSLGTYASLHGRIYCKPHFNQLFKSKGNYDEGFGHRPHKDLWASKNENEEILERPAQLANARETPHSPGVEDAPIAKVGVLAASMEAKASSQQEKEDKPAETKKLRIAWPPPTELGSSGSALEEGIKMSKPKWPPEDEISKPEVPEDVDLDLKKLRRSSSLKERSRPFTVAASFQSTSVKSPKTVSPPIRKGWSMSEQSEESVGGRVAERKQVENAKASKKNGNVGKTTWQNKESKGETGKRSKEGHSLEMENENLVENGADSDEDDNSFLKQQSPQEPKSLNWSSFVDNTFAEEFTTQNQKSQDVELWEGEVVKELSVEEQIKRNRYYDEDEDEE
stoichiometry N: ~8 polypeptides
